Data: article PMC9913352

Target: untagged human Nit1 isoform 4 (human)
Assay: SEC; untagged proteins after on-column TEV cleavage, Superdex 200-HR, 50 mM Tris/HCl pH 8.0, 100 mM NaCl, 2 mM MgCl2, 0.3 mL/min; calibrated with marker proteins

stoichiometry N: 4
Substance: untagged human Nit1 isoform 4 (natural protein)
